Reference: a protein production outcome set (Wang et al. 2014)

Assay: label from the status in PepcDB records

Sequence | protein production
MIKRDFRKKLTMCLASVMALNLGISVSVKADEGLKNEIKNNDITKDISIYPTPKDMTVGNSEFTLEDSVNIVGGDLADTYAFELLKNMLTEFGIKINESEIEGATTIYIGESDDNIEEMENTLEEMNVDTSSISKDEGYVLVTDENIEGNKIVIRGNDETGTFYGVKSLKQLIKKEDNKVILDEVVIKDEPSFKMRAVVEGFYGTPWSQEERLDQIKMYGEYKMNAYIYAPKSDPYHREKWREPYPASELDRMKELIKTANENKVDFVFAISPGLDIKFEGEEGEADFKALINKAETLYDMGVRSFAILWDDIENRSGVQQAEVLNRFNKEFIKNKEGVKPLITVPVEYWGSSMFNGEEVKTYTKEFAETLDKDIEVMWTGNDVIPPNGVSLEDAKKVSNVYNRKMMLWWNYPVNDYKEDKMALGPIYDLDRNLDEDVSGFIVNPMRFSDASKISTLTGADYGWNSISYEAEKSWDKAIEIIAGEMKEEFKIFANHSTRLDTGRPDSPEIKNTIDSLWEKWEAGSDISLELSNLQNEFSKMVQVPNKLRSNLENKALLNQLDSHLSKFEIYGNAGLKSIEILQDILNKDMSEFWSDNFEGIKLLRNLDGIKATIANNVVDPFIRKVHEVGNEYFNKETTVLEEKEYSYTSIGNIVDHKYSEWFISEETHVPNYMFDDKDNTGFWSAAPVQKDEFIGFDLGEAEEIKDIYLLMGRNNNDTDVLTNGVIEYSLDGENWTELEVNKGERELLVETGIKARFIRYRALSDSENKLYVRDFKVNTGKSKEKLIGDVEVKDSNINKSSEGENEIISASNINKISFEEGDSIGLAINDVKNVIGFEVLGDVESNKFVLESSFDNIEWEEVCNGTSFKDETPLVGKFFRIRAKEKTEANINEIKISLEGYSKGIVSTNRRISSNANIHPDFVADNDYGTSFVCSDTIKKGDFVQLDLGVEKKIRDISLVQGPGGDYMDGDIEYSLDGENWIKLGVVEGTDTLIKDLDVKARYVRVISTGYKDRWSRVREFTVNKTVKEFETKATSEGTYIDRSENIRDNNLNSAYIPEGEIKSGDYLLRRIFNERLVSKVTVAQSTDNLSGAKVIGKTVNGETLDLGVLDKGLNELVLKNPRQLVSVKLVWEKDAGKVEIFEVKPTFVSLDYIIEDIKNEIQRGKDVLVEHKDKENEERTQLEEALKNIENLLNNKASDDEIVRAYEDLTNKINNFIDSEPNKEEENKPSKPEGGENGSEGEGDKEDSGDKNENEDNKDENGNLPNTGSPLGAGELMLVGAALATLGGVTIKKKK | failed
DVTEQKQAEAELHQRDRLLQAVAEAANWLVVEMNYDTAIEKALAVVGEAAQADRAYLFKNHPHPITGKRAVSLQFEWYGSDLQPSIQDWQNQLYQSTELSRWYSVLSSGKSINELRRKLPVAERELLERQGIQSLLLVPLGLEDQFWGYLGLADCTQERYWSRHEESTLLTMAASISGAWQRQQVEEKIRYQALHDL | not failed
MAIPHYRLASFSSIIDDEIDKSVLVNLVGAIYDVGEFINTRPKQNIVDDLTLTFKISDNENRVLECLATKKEALDFDHNYRQYGGGVIVAVLGWWKIERYFDGTKNIRVCTACPISTVFP | failed
MRAPLSTYRRPQRTDFVTPTGGPFFAKQDKALNTIDLKMAHDLKLRGYRVKVAVVDEGVRSDHPLLNVEKKYGGDYMADGTRTYPDPKRQGRHGTSVALVLAGQDTDTYRGGVAPNADLYSANIGTRAGHVSDEAAFHAWNDLLGHGIKIFNNSFATEGPEGEQRVKEDRNEYHSAANKQNTYIGRLDRLVRDGALLIFAAGNGRPSGRAYSEVGSVGRTPRVEPHLQRGLIVVTAVDENGRLETWANRCGQAQQWCLAAPSTAYLPGLDKDNPDSIHVEQGTSLSAPLVTGAAVLVQDRFRWMDNDNLRTTLLTTAQDKGPYGVDPQYGWGVLDVGRAVQGPAQFAFGDFVARVTDTSTFGLEHHHHHH | failed
MRASTLLIIAGMFIVSLYALIEVSFYSSQVTVHRPDVRAPVIEVPSINLTETINNRSVFYGVYHEPMSYPPGNRTVILFGHRTLYGSPFLHLDKLRAGDSVYLNWPGVGFAEYRVNRSFIVPASYQMPVNQGAKLFLITCHPLGSTRERLIVECHLEGIRPYQRNVRVDNPKSYYSIPIILGFLSAGLLVTRFYPVEEDRRFLLAAVIGLTVFLVLGYLFPIPPEFISDKLMEFNNILGI | failed
MTYLETAAQFYSEVAQTPQVGLCCVQSTPLQLPGLKIPLPMQEMNYGCGTTVHPTELGKQPTVLYVGVGGGLEALQFAYFSRRPGAVIAVEPVAAMREAAARNLEMALTDNPWFDSSFVEIREGDAFNLPVADGSVDIVAQNCLFNIFEPEDLTRALKEAYRVLKPGGRLQMSDPIATSPVPAHLQQDERLRAMCLSGALTYEEYTQRIIDAGFGQIEIRARRPYRLLDSQTYNLETHLLLESLDSVSFKVPMPEDGACIFTGRTAIYAGCDAFFDDKAGHILQRGIPATVCDKTAAKLATVKPKEVIITDSTWHYNGGGCCLEHHHHHH | not failed
MDLESVKKYLEGDEDEKAKEPMVAKLPHRFLERFVTNGLKVDLIEPGRIVCSMKIPPHLLNAGKFLHGGATATLVDLIGSAVIYTAGASHSGVSVEINVSYLDAAFLDEEIEIESKALRVGKAVAVVSVELRKKTTGKIIAQGRHTKYFAPRSNL | failed
MHSDALSWGHGPRLFEVFLEPTCPFSVKAFFKLDDLLAQAGEDNVTVRIRLQSQPWHMFSGVIVRCILAAATLEGGKESAKAVMTAVASHREEFEFEHHAGGPNLDATPNDIIARIERYSGLALAEAFANPELEHAVKWHTKYARQNGIHVSPTFMINGLVQPGMSSGDPVSKWVSDIG | not failed
MNTIRPVSDLRNNFADISKIVHQSQQPVFLTKNGYGDMVVMSMETFEDMKFESDIYSKLQEAEKQASLTGKRFSSKDVFEEIQKLISELEHHHHHH | not failed
MKKVSIIIPFKGQTEAELMLPLSSIYNQIGVDLSQLDIHLVNDGGKTIDLSKFDVLADRLEIHYHEIPNGGPGVARQYGIDNSISEYIMFIDADDVLYYVGALWPFYNASNQGHQMIRASYWEQIAGNPYTYTVHGNGDRKAAYGKWYKRSYIEMLGLRFMPDLPIYEDTYFVGLACELATDTCFLEEKVYMWLANPNSITRTVENKFNYQAHIYARENRYWFEMIRKWKPECLEHHHHHH | failed
MKRLMFIGPSQCGKTSLTQSLRGEALHYKKTQAIEWSPMAIDTPGEYLENRCLYSALLTSACEADVIALVLNADAQWSPFSPGFTVPMNRPTIGLVTKADLADPQRISLVAQWLTQAGARQIFITSALNNSGLDAVLDFLNSKEPLCLTKLEHHHHHH | failed
MKVYLESFGCSASQASAEIMKASIGKLGHELLSPENAGQAEVYICNSCTVKYTTEQKILYKIRSMGEKGVQVIVSGCMPEVQLEDILHANPEAHILGVNAVSRLGDLLSTIEQRKKTGIPGGERLEIRTSEPQGFLNVPRERSNPNIHICQISQGCNFACSYCIVKHARGKLLSFPPEEIIEDIRSAVADGCREIWLTSQDDSQYGMDTGVKLPELLRAISEIPGDFKVRVGMMNPFSVLPILDDLVDAFDSDKIFKLLHLPIQSASHSVLKKMNRLHKMDSVDEIITKFRAHFEDLSLFTDIIVGFCDETDEDFEETIEWVKKYRPEKINISRYSPRPHTKAFSFRNLDSRISVKRSHQLHKVCEQIKIESKNEMIGWKGRVFVSKYTEIGDVLTRTDSYRPVVISGSDLRPGEYAEVKITGAKPGYFLGKLVSLEHHHHHH | not failed
MLSRLRHRLLAVAAAAGLTGALLSFGAAPPADAAVPATIPLKITNNSARGDAVHIYNLGTSLTTGQQGWADENGTFHAWPAGGNPPTPAPDASIPGPAAGQTKTIRIPKLSGRIYFSYGQKLDFRLTTGGLVQPAVQNPSDPNRNILFNWSEYTLNDGGLWLNSTQVDMFSAPYTVGVQRADGGVTSAGQLKAGGYRGVFDALRAQPGWGGLIQTRPDGTVLRALAPLYGVETGALPASVMDDYINRVWQKYTTTTLTVTPFGDRPDTKYFGRVSGNVMNFTNTSGAVVTSFQKPDASSVFGCHRLLDAPNDQVRGPISRTLCAGFNRSTLLSNPNQPDPSAANFYRDPVTNHYARIIHERMADGKAYAFAFDDVGNHESLVHDGNPAEARLTLAPLDLEHHHHHH | not failed
MKKLKIVMTGGGSAGHVTPNLALVPKLKELGYEIEYIGTKDGIERSIIEKENIKYNCISSGKLRRYIDIKNFSDPFKVILGIFQSVSILRKKKPNIVFSKGGFVSVPVVIAAHFCRIPVIAHESDITPGLANRIAVPYCTKVCATFPESLNNIKGNKGILTGTPIRDELFKGSKIKGLEICGFTGEKPVLMIIGGSLGSKIIN | failed
MARGLNRVFLIGALATRPDMRYTPAGLAILDLTLAGQDLLLSDNGGEREVSWYHRVRLLGRQAEMWGDLLDQGQLVFVEGRLEYRQWEREGERRSELQIRADFLDPLDDRGKERAEDSRGQPRLRAALNQVFLMGNLTRDPELRYTPQGTAVARLGLAVNERRQGAEERTHFVEVQAWRDLAEWAAELRKGDGLFVIGRLVNDSWTSSSGERRFQTRVEALRLERPTRGPAQAGGSRSREVQTGGVDIDEGLEDFPPEEELPF | not failed
MKPVAPRSFFAMDFLEFITAWEGKWLSQRTNYSFEQNEAGNAKSDVTVQRWDSQTELGRSLLERAGLKNQGELILLQLSWDNSVDWGKSKQKGTIYYGFLPDADHGDRGQLWRGTTNSNLAFLRGDYHLGSDECLTLNLGDGETSLTERHWYASPNLRLRTSLIQQGEGYSHSAFYSDIRRLPPAE | failed
PGSFSQEAAEIFGSDLVPVRSISEIFHKISVTGDYGIVPIENSIEGPVNETLDGLFRHEDIYIVDHVEIPIEIFLASNCDTENIRRIYSHPHAIAEAGDYLERTENIEVIRTSSTSEAAKLASMDEAGAALCSMKAAQHYGLANTVKIESKSRNITRFILIGRERN | not failed
MNLLIKINPVTRIIALMVLTTPLLLSLDVMSAAIALVATIILAPFAGVTWKMLLKRGWMLFLMAPVAALSMALYGRPDGKEYFSFLLIHVTDNSLALAAAIGLRVLAIGLPVVVLIARIDPTDLGDGLAQLLKLPERFVIGAVAGSRLMTLFREDWYSMSRARRARGIADQGKIKHFFTMTFGLLVLSLRRGSKLATAMEARGFGRTTGRTWARESTVGARDLVLILVCAAISAIALTVSIQTGFFKFLGT | failed
MKKKLFYYLFAVLCTATLFTSCSDDDDEVKYPIDTELAGGYVGNLSVNVDGNQMGTTENQKITISQSNKETNQIALSLKNFTFLVNVGDIEVDPCTVKAIDGGYAFEGQQNLDLVQPLGNCPVSISGTVKGSNINIEIGVKVGAPLNQNVKATFVGRKLTGSESSEAKIISFILDDDIVTEQPIINEEEGIVTFKVSDAAVDDDLSGMIPTIVVSSKAKITPASGVAQDFSNGKKVEYTVTAEDGTTKKYSVFIAGSSDYYSFETWKSLNDGAFEEPDGGWATSNTGVWFIKTVYPDVYNGDYPVVKSEDAKDGAVGVKLITLDTKGQAGADWGFIKIPAIPKVTSGSLFLGTFETDIQNTLNSTKFGNPYYSKPISVQFSYKYTPGAVYYTCPDPVKAEAVTEDPNTTDECSVTAVIYEVPYWETVDPDDANNKAYDKRLTGANLYTNTDQVIAMATFSSGVQEDYKDITLTLNYEKDYDPTKKYRFAIVFSSSKNGDKFSGAPGSTLIVDNVKVVAEK | failed
MVFIWSLIFIVILSVVFTTNIKKNYKGWYALASFISILVSIYEVMRIVSHPKLNGVILSIEQAFMKGNVAIAFFILVMFAGALSTKQVIGKKLMSIRAELAILGSILILPHGIIYFVRFLIIKLPKILNGKANATLYLIYISIGIIAFIIMIPLFITSFKSVRKRLGGFRWKKLHRWSYVFYCLIYLHIILALLNGKINFIKIILYTFIFMVYTVMKFIKHRNIKLRRKS | failed
MWRRSLTESHSNELRLELTSRIVSAYLSRNVIAPSELPHLIQQTYGSLGKTSEPTKTPATVEEQRPAVPIKKSVTDDFIVCLEDGKSFKSLKRHLMAKYALTPEQYREKWKLPADYPMVAPNYARKRSELARATGLGKKSAANLSPSLQAVRSA | not failed
REMGCAVTVADSNSAQLDKLAQQTGCQTISPADVVSDGFQDYTVVVTSPGWRPDSPLLVAAQSAGLEVIGDVELVYRLDRAEVFGPKRTWMVVTGTNGKTTTTAMLAEIMQHSGARAAAVGNIGVSVADAVRTQPRIDVLVAELSSFQL | failed
